The source of these data is publication PMC3838848 (BioMed Research International, 2013).

This series concerns the molecule itself. Nature of the series: SEC-MALS; 500 uL sample at 1 mg/mL on Superdex 75 10/30 in 50 mM Tris-HCl, 0.15 M NaCl, pH 8.0, online triple-angle static light scattering (MiniDAWN Treos). (SEC sorts molecules by how far they enter the pores of the column.)

B1: POZ/BTB domain of KCTD6 (domain or fragment, human, UniProt Q8NC69 10-110, looked up)
chain: MTDPVTLNVGGHLYTTSLTTLTRYPDSMLGAMFGGDFPTARDPQGNYFIDRDGPLFRYVLNFLRTSELTLPLDFKEFDLLRKEADFYQIEPLIQCLNDPKP
notes: KCTD6, human, POZ/BTB domain, residues 10-110 of the protein of 237 residues (UniProt Q8NC69); cDNA NM_153331; also called KCTD6BTB; source: E. coli BL21(DE3) Star, purified
For the protein B1, the stoichiometry N (commonly a count of units in the complex or per binding partner) is 4.
